Consider two proteins from patent US20060234291A1 (MODPRO, published 2006).

Non-standard residues stand in square brackets, D forms with d. Nle = CCCC[C@H](N)C(=O)O; Orn = NCCC[C@H](N)C(=O)O

Data set [1] deals with the molecule itself. Put plainly: 1H NMR NOESY, self-association. Here is the method:
The secondary and tertiary structures of LA-42h were investigated by ¹H-NMR spectroscopy. The ¹H-NMR spectrum of LA-42h was assigned from the TOCSY and NOESY spectra recorded in H₂O:D₂O (90:10 v/v) containing 4 vol % of TFE-d₃ at 308 K using methods described in detail previously [S. Olofsson, L. Baltzer, Folding & Design 1996, 347-356]. Most of the spin systems of the amino acids were identified from the αH—NH region in the TOCSY spectrum and the sequential assignments of residues 5 to 19 and 23 to 41were obtained from the NH—NH region in the NOESY spectrum. Due to the cis-trans equilibrium of Pro21, an extra set of resonances with low intensity from the amino acids near the proline in the loop region was identified. The aH chemical shifts are diagnostic of secondary structure formation, and the measured values were compared to tabulated values for random coil conformations [D. S. Wishart, B. D. Sykes, F. M. Richards, J. Mol. Biol. 1991, 222, 311-333]. From their upfield shifts relative to the random coil values, two helical segments were identified in the sequence of LA-42h from […] Nle16 and from Ala25 to Arg40. A loop region was also assigned from the downfield shifts, or absence of deviation relative to random coil conformation, of the α protons. […]

Data set [2] deals with the molecule itself. Put plainly: 1H NMR NOESY and CD spectroscopy, self-association. The text has this: This is because NOEs only arise between nuclei separated by less than 5 Å [K. Wüthrich, NMR of proteins and nucleic acids, John Wiley & Sons, Inc., 1986] and the distances between Phe35 and Nle16, and between N15 and Lys19, are too long to give rise to NOEs within the monomer and too long to give rise to NOEs in a parallel dimer. […] The inventor concludes that KA-I forms an antiparallel dimer of helix-loop-helix hairpin motifs, and that residues in a and d positions are positioned in the hydrophobic core, whereas all other residues are solvent exposed.
CD spectra were recorded on a Jasco J-715 CD spectropolarimeter, in 0.1, 0.5, or 1 mm cuvettes in the interval from 280-190 nm at room temperature. Each spectrum is an average of six scans and the background was subtracted from the spectrum before the mean residue ellipticity at 222 nm was measured. A 1 mM stock peptide solution was prepared by dissolving the peptide in buffer, under the assumption that the lyophilized peptide contains 25% water. The pH was adjusted by addition of small amounts of 0.1 M-1 M NaOH or HCl. For the concentration dependent studies the stock peptide solution was diluted to the desired concentrations by pipetting. […] The concentration of the stock solution for the concentration dependent measurement was determined by quantitative amino acid analysis. […]

B1: LA-42h (peptide)
chain: Ac-NAAD[Nle]EAKIRHLAEK[Nle]AARGPVDAAQ[Nle]AEQLAKKFEAFARAG-NH2
modifications: also: two monomers associate antiparallel into four-helix bundle (dimer)
notes: two monomers associate antiparallel into a four-helix bundle
For B1, in data set [1], the binding result is recorded as “binds”.

B2: KA-I (peptide)
chain: Ac-NAAD[Nle]EAAIKALAEK[Nle]AAKGPVDAAQ[Nle]AEQLAK[Orn]FEAFARAG-NH2
modifications: also: two monomers associate antiparallel into four-helix bundle (dimer)
For B2, the binding result in data set [2] was “binds”.
